B1: NLV2 TCR alpha chain (CDR3α only) (parent)
chain: AGPMKTSYDKVI

Variants of: B1
Experiment: T-Switch: Jurkat TCRβ−/− cells expressing a CDR3 saturation-mutagenesis library, stained with two peptide-HLA-A*02:01 tetramers (original and novel peptide) plus anti-CD3, FACS-sorted into four gates, gDNA sequenced
Details: tetramers 1 µg/mL, 30 min on ice, SP, DP and SW gates expanded about 10 days between rounds ('two to three rounds of selection' in the Methods), unresolved parent, parent is a CDR3 fragment, scale: fold enrichment, numbering: sequential-on-construct, sequence starts at 1
[1] = with both tetramers (double-negative gate, binds neither): HLA-A*02:01 with … and with …, gate DN: OPPOSITE: higher = more of the variant in the gate that binds neither peptide = LESS binding (or no expression; inferred). Fold enrichment of the CDR3 variant in one FACS gate of a two-tetram
[2] = with both tetramers (double-positive gate): HLA-A*02:01 with … and with …, gate DP: higher = more of the variant in the gate that binds both peptides. Fold enrichment of the CDR3 variant in one FACS gate of a two-tetramer stain. SP/DP/SW gates were expanded and re-sorted bef

Variant	enrichment [1]	enrichment [2]
[…] (CDR3 as printed); K5Q derived by comparing it with the table's wild-type CDR3 AGPMKTSYDKVI	0.51	0
[…] (CDR3 as printed); D9K derived by comparing it with the table's wild-type CDR3 AGPMKTSYDKVI	0.961	0
[…] (CDR3 as printed); A1W derived by comparing it with the table's wild-type CDR3 AGPMKTSYDKVI	0.77	0
[…] (CDR3 as printed); I12E derived by comparing it with the table's wild-type CDR3 AGPMKTSYDKVI	1.18	0
[…] (CDR3 as printed); K5W derived by comparing it with the table's wild-type CDR3 AGPMKTSYDKVI	0.659	0
[…] (CDR3 as printed); A1R derived by comparing it with the table's wild-type CDR3 AGPMKTSYDKVI	0.924	0
[…] (CDR3 as printed); K5G derived by comparing it with the table's wild-type CDR3 AGPMKTSYDKVI	0.602	0
[…] (CDR3 as printed); M4G derived by comparing it with the table's wild-type CDR3 AGPMKTSYDKVI	0.783	0
[…] (CDR3 as printed); I12T derived by comparing it with the table's wild-type CDR3 AGPMKTSYDKVI	0.984	0
[…] (CDR3 as printed); I12M derived by comparing it with the table's wild-type CDR3 AGPMKTSYDKVI	0.63	0
[…] (CDR3 as printed); K5R derived by comparing it with the table's wild-type CDR3 AGPMKTSYDKVI	1.15	0
[…] (CDR3 as printed); K5N derived by comparing it with the table's wild-type CDR3 AGPMKTSYDKVI	1.12	0
[…] (CDR3 as printed); K10D derived by comparing it with the table's wild-type CDR3 AGPMKTSYDKVI	0.842	0
[…] (CDR3 as printed); I12V derived by comparing it with the table's wild-type CDR3 AGPMKTSYDKVI	0.739	0
[…] (CDR3 as printed); D9P derived by comparing it with the table's wild-type CDR3 AGPMKTSYDKVI	1.22	0
[…] (CDR3 as printed); K5D derived by comparing it with the table's wild-type CDR3 AGPMKTSYDKVI	0.812	0
[…] (CDR3 as printed); K5Y derived by comparing it with the table's wild-type CDR3 AGPMKTSYDKVI	0.737	0
[…] (CDR3 as printed); G2P derived by comparing it with the table's wild-type CDR3 AGPMKTSYDKVI	0.883	0
[…] (CDR3 as printed); G2Y derived by comparing it with the table's wild-type CDR3 AGPMKTSYDKVI	0.902	0
[…] (CDR3 as printed); D9Y derived by comparing it with the table's wild-type CDR3 AGPMKTSYDKVI	1.09	0

Variant	enrichment [1]	enrichment [2]
[…] (CDR3 as printed); K10A derived by comparing it with the table's wild-type CDR3 AGPMKTSYDKVI	0.862	0
[…] (CDR3 as printed); G2C derived by comparing it with the table's wild-type CDR3 AGPMKTSYDKVI	0.956	0
[…] (CDR3 as printed); I12C derived by comparing it with the table's wild-type CDR3 AGPMKTSYDKVI	1.05	0
[…] (CDR3 as printed); K5H derived by comparing it with the table's wild-type CDR3 AGPMKTSYDKVI	0.696	0
[…] (CDR3 as printed); K10P derived by comparing it with the table's wild-type CDR3 AGPMKTSYDKVI	0.876	0
[…] (CDR3 as printed); G2F derived by comparing it with the table's wild-type CDR3 AGPMKTSYDKVI	0.804	0
[…] (CDR3 as printed); I12W derived by comparing it with the table's wild-type CDR3 AGPMKTSYDKVI	0.924	0
[…] (CDR3 as printed); D9R derived by comparing it with the table's wild-type CDR3 AGPMKTSYDKVI	1.08	0
[…] (CDR3 as printed); M4C derived by comparing it with the table's wild-type CDR3 AGPMKTSYDKVI	0.681	0
[…] (CDR3 as printed); K10R derived by comparing it with the table's wild-type CDR3 AGPMKTSYDKVI	0.909	0
[…] (CDR3 as printed); K10E derived by comparing it with the table's wild-type CDR3 AGPMKTSYDKVI	1.27	0
[…] (CDR3 as printed); D9G derived by comparing it with the table's wild-type CDR3 AGPMKTSYDKVI	1.23	0
[…] (CDR3 as printed); K10V derived by comparing it with the table's wild-type CDR3 AGPMKTSYDKVI	1.38	0
[…] (CDR3 as printed); A1M derived by comparing it with the table's wild-type CDR3 AGPMKTSYDKVI	0.803	0
[…] (CDR3 as printed); I12F derived by comparing it with the table's wild-type CDR3 AGPMKTSYDKVI	1.16	0
[…] (CDR3 as printed); I12A derived by comparing it with the table's wild-type CDR3 AGPMKTSYDKVI	0.854	0
[…] (CDR3 as printed); K5F derived by comparing it with the table's wild-type CDR3 AGPMKTSYDKVI	0.857	0
[…] (CDR3 as printed); K5T derived by comparing it with the table's wild-type CDR3 AGPMKTSYDKVI	0.493	0.931
[…] (CDR3 as printed); G2W derived by comparing it with the table's wild-type CDR3 AGPMKTSYDKVI	1.05	0
[…] (CDR3 as printed); D9E derived by comparing it with the table's wild-type CDR3 AGPMKTSYDKVI	1.03	0

Variant	enrichment [1]	enrichment [2]
[…] (CDR3 as printed); G2L derived by comparing it with the table's wild-type CDR3 AGPMKTSYDKVI	0.978	0
[…] (CDR3 as printed); K10C derived by comparing it with the table's wild-type CDR3 AGPMKTSYDKVI	1.06	0
[…] (CDR3 as printed); K10Y derived by comparing it with the table's wild-type CDR3 AGPMKTSYDKVI	0.393	0
[…] (CDR3 as printed); D9A derived by comparing it with the table's wild-type CDR3 AGPMKTSYDKVI	1.01	0
[…] (CDR3 as printed); A1K derived by comparing it with the table's wild-type CDR3 AGPMKTSYDKVI	1	0
[…] (CDR3 as printed); K5P derived by comparing it with the table's wild-type CDR3 AGPMKTSYDKVI	0.356	0
[…] (CDR3 as printed); I12Y derived by comparing it with the table's wild-type CDR3 AGPMKTSYDKVI	1.06	0
[…] (CDR3 as printed); D9N derived by comparing it with the table's wild-type CDR3 AGPMKTSYDKVI	1.01	0
[…] (CDR3 as printed); K5M derived by comparing it with the table's wild-type CDR3 AGPMKTSYDKVI	0.901	0
[…] (CDR3 as printed); A1T derived by comparing it with the table's wild-type CDR3 AGPMKTSYDKVI	0.871	0
[…] (CDR3 as printed); K10I derived by comparing it with the table's wild-type CDR3 AGPMKTSYDKVI	1.1	0
[…] (CDR3 as printed); G2R derived by comparing it with the table's wild-type CDR3 AGPMKTSYDKVI	0.977	0
[…] (CDR3 as printed); A1N derived by comparing it with the table's wild-type CDR3 AGPMKTSYDKVI	0.847	0
[…] (CDR3 as printed); D9W derived by comparing it with the table's wild-type CDR3 AGPMKTSYDKVI	1.34	0
[…] (CDR3 as printed); I12H derived by comparing it with the table's wild-type CDR3 AGPMKTSYDKVI	1.04	0
[…] (CDR3 as printed); D9Q derived by comparing it with the table's wild-type CDR3 AGPMKTSYDKVI	0.673	0
[…] (CDR3 as printed); I12S derived by comparing it with the table's wild-type CDR3 AGPMKTSYDKVI	0.885	0
[…] (CDR3 as printed); K5E derived by comparing it with the table's wild-type CDR3 AGPMKTSYDKVI	0.392	0

Reference: publication PMC13397619
